Substitutions are numbered along the chain they refer to. Where “and” joins values, the source holds several entries; their conditions need not be identical. Equal values may be shown once. {Biotin} = biotin attached at the strand end
B1: R-15: extension fragment deformation+core short-sequence RNA nanoparticle, SEQ ID NO:120-122, 3′ biotin on a-strand, 2′F (nucleic acid)
chain 1: GCGGCGAGCGGCGAGGAGCGUUGGGGCCGGAGGCCGG
chain 2: CCGGCCUCCGGCCCCUUCGGGGCCAGCCGCC
chain 3: GGCGGCAGGCCCCCAUAGCCCUCGCCGCUCGCCGC
modifications: chain 1: 3' {Biotin}, sugars by position and backbone not given here; chain 2: chemistry not given here; chain 3: chemistry not given here; three-strand RNA nanoparticle, 2'-F modified
B2: R-19: extension fragment deformation+core short-sequence RNA nanoparticle, SEQ ID NO:132-134, 3′ biotin on a-strand, 2′F (nucleic acid)
chain 1: B1 chain 1 with G16C, G23C
chain 2: B1 chain 2 with C15G, G21C, G22C
chain 3: B1 chain 3 with C10G, C11G, C20G
modifications: chain 1: 3' {Biotin}, sugars by position and backbone not given here; chain 2: chemistry not given here; chain 3: chemistry not given here; three-strand RNA nanoparticle, 2'-F modified
B3: R-17: extension fragment deformation+core short-sequence RNA nanoparticle, SEQ ID NO:126-128, 3′ biotin on a-strand, 2′F (nucleic acid)
chain 1: B1 chain 1
chain 2: B1 chain 2 with G20C, G21C
chain 3: B1 chain 3 with C11G, C12G
modifications: chain 1: 3' {Biotin}, sugars by position and backbone not given here; chain 2: chemistry not given here; chain 3: chemistry not given here; three-strand RNA nanoparticle, 2'-F modified
B4: R-18: extension fragment deformation+core short-sequence RNA nanoparticle, SEQ ID NO:129-131, 3′ biotin on a-strand, 2′F (nucleic acid)
chain 1: B1 chain 1 with G16C, G23C
chain 2: B1 chain 2 with C15G, G21C
chain 3: B1 chain 3 with C11G, C20G
modifications: chain 1: 3' {Biotin}, sugars by position and backbone not given here; chain 2: chemistry not given here; chain 3: chemistry not given here; three-strand RNA nanoparticle, 2'-F modified
B5: R-16: extension fragment deformation+core short-sequence RNA nanoparticle, SEQ ID NO:123-125, 3′ biotin on a-strand, 2′F (nucleic acid)
chain 1: B1 chain 1 with G16C, G23C
chain 2: B1 chain 2 with C15G, G20C, G21C
chain 3: B1 chain 3 with C11G, C12G, C20G
modifications: chain 1: 3' {Biotin}, sugars by position and backbone not given here; chain 2: chemistry not given here; chain 3: chemistry not given here; three-strand RNA nanoparticle, 2'-F modified
B6: D-7: conventional-sequence DNA nanoparticle, SEQ ID NO:117-119, without target head, thio modification (nucleic acid)
chain 1: CGCGCGCCCACGAGCGTTGCGGGCGCCGC
chain 2: GCGGCGCCCGCTTCGGCGGCAGGCGGC
chain 3: GCCGCCAGCCGCCCATAGCCGTGGGCGCGCG
modifications: DNA, backbone and methylation of C not given here; three-strand DNA nanoparticle, phosphorothioate modification
B7: D-6: conventional-sequence DNA nanoparticle, SEQ ID NO:114-116, without target head, thio modification (nucleic acid)
chain 1: CGCGCGCCCAGCAGCGTTCGGGGCGCCGC
chain 2: GCGGCGCCCCGTTCGGCCGGCAGGCGGC
chain 3: GCCGCCAGCCGGCCCATAGCGCTGGGCGCGCG
modifications: DNA, backbone and methylation of C not given here; three-strand DNA nanoparticle, phosphorothioate modification
B8: D-2: conventional-sequence DNA nanoparticle, SEQ ID NO:102-104, EGFRapt target head, thio modification (nucleic acid)
chain 1: CGCGCGCCCAGCAGCGTTCGCGGGCGGCGGCCTTAGTAACGTGCTTTGATGTCGATTCGACAGGAGGC
chain 2: CGCCGCCCGCGTTCGCCGCCAGCCGCC
chain 3: GGCGGCAGGCGGCCATAGCGCTGGGCGCGCG
modifications: DNA, backbone and methylation of C not given here; DNA nanoparticle with EGFR aptamer head, phosphorothioate modification

assay: Particle size measurement (DLS hydrodynamic size); assay type: physicochemical; details: not given
Excerpt: 1. Preparing a potential sample (conventional-sequence DNA self-assembly product D-7) and putting into a sample pool, opening a sample pool cover of an instrument, and placing the instrument;
2. opening software, and clicking a menu, so a manual measurement parameter setting dialog box appears;
3. setting a software detection parameter; and then
4. clicking Ok to complete the settings, while a measurement dialog box appears, clicking Start to start, a DLS measurement value result of a hydrodynamic size of the self-assembly product D-7 is as follows:
1. Preparing a potential sample (7 groups of extension fragment deformation+core short-sequence RNA) and putting into a sample pool, opening a sample pool cover of an instrument, and placing the instrument;
4. clicking Ok to complete the settings, while a measurement dialog box appears, clicking Start to start, a DLS measurement value result of a hydrodynamic size of the 7 groups of extension fragment deformation+core short-sequence RNA is as follows:
(1) Preparing a potential sample (7 groups of extension fragment deformation+core short-sequence DNA) and putting into a sample pool, opening a sample pool cover of an instrument, and placing the instrument;
(2) opening software, and clicking a menu, so a manual measurement parameter setting dialog box appears;
(3) setting a software detection parameter; and then
(4) clicking Ok to complete the settings, while a measurement dialog box appears, clicking Start to start, a DLS measurement value result of a hydrodynamic size of the 7 groups of extension fragment deformation+core short-sequence DNA is as follows: […]

Molecule | Mean particle size
B1 | 6.808 nm
B2 | 6.936 nm
B3 | 7.592 nm
B4 | 7.520 nm
B5 | 6.978 nm

same assay, conditions: detection times 1-3, listed as 1

Molecule | Particle size Z-Ave, single detection
B6 | 10.76 nm·days and 13.9 nm·days and 10.36 nm·days

same assay, conditions: summary of 3 detections

Molecule | Particle size Z-Ave, Experiment result
B6 | 12.33 d.nm(±1.57 d.nm)

assay: Doxorubicin loading rate, chemical loading (paraformaldehyde covalent linkage); assay type: physicochemical; details: doxorubicin molecules per nucleic acid nanoparticle carrier
Description: (1) Accurately weighing the doxorubicin (5.0 mg, 8.6 μmol, 40 eq.) and dissolving in the DEPC treated water (1.8 mL) and the PBS buffer solution (2.1 mL), adding 4% paraformaldehyde aqueous solution (0.4 mL) under cooling of an ice-water bath and uniformly mixing, enabling the mixed solution to be totally uniformly mixed with the RNA nanoparticles (215 nmol), and reacting for 72 hours at 4 DEG C. under a dark condition.
(2) Taking 10 μL of reaction solution and diluting for 10 times, using 50 μM of the doxorubicin aqueous solution and 310 ng/μL of the RNA nanoparticles as controls, and performing HPLC analysis according to equal volume injection. According to a peak area ratio of each component, it may be adjusted that reaction conversion is basically completed.
(3) Extracting the reaction solution by the chloroform (10 mL×3), and then adding 10 times of the anhydrous ethanol in volume, after uniformly mixing, keeping at 4 DEG C. in the dark and enabling a product to be adequately precipitated (4 hours). Centrifuging, transferring supernatant, and washing the solid product again by the ethanol, evaporating a solvent under reduced pressure and lower temperature, to obtain a loading product which is a dark red solid.
(5) Loading rate calculation:
1. preparing a known concentration of doxorubicin-PBS standard solution: 2 μM, 4 μM, 6 μM, 8 μM, and 10 μM, 100 μL each;
2. enabling the doxorubicin-loaded product to be dissolved in 100 μL of the PBS;
3. putting the standard solution and the doxorubicin-loaded product into a PCR plate, heating at 85 DEG C. for 5 min, and then cooling to the room temperature;
4. measuring an absorbance of the doxorubicin at 492 nm by using a microplate reader, drawing a standard curve (as shown in FIG. 11), and calculating the molar concentration of the doxorubicin in the loaded product;
5. measuring an absorbance of RNA at 260 nm by using a spectrophotometer, to obtain the mass concentration of the doxorubicin-loaded product contained in each sample; and
6. according to the doxorubicin molar concentration and the mass concentration of the doxorubicin-loaded product obtained by measuring, calculating a loading rate.
According to the chemical loading method (unless otherwise specified, the method is the same as that of Embodiment 5) of Embodiment 5, the above DNA nanoparticles in Embodiment 1, the RNA nanoparticles formed by the self-assembly of the R-1, R-2, R-3, R-4, R-5, R-6 and R-7 in Embodiment 2, and the DNA nanoparticles formed by the self-assembly of the D-2, D-6 and D-7 in Embodiment 4 are respectively used as doxorubicin loading carriers, doxorubicin loading rates measured are respectively as follows:
According to the chemical loading method (unless otherwise specified, the method is the same as that of Embodiment 5) of Embodiment 5, the RNA nanoparticles formed by the self-assembly of the previous R-15, R-16, R-17, R-18, R-19, R-20 and R-21 in Embodiment 11, and the DNA nanoparticles formed by the self-assembly of the D-8, D-9, D-10, D-11, D-12, D-13 and D-14 in Embodiment 12 are respectively used as doxorubicin loading carriers, doxorubicin loading rates measured are respectively as follows: […]

Molecule | doxorubicin loading rate
R-1: short-sequence RNA nanoparticle, strands SEQ ID NO:55-57, c/u 2′F modification (chain 1 GGAGCGUUGG; chain 2 CCUUCGCCGY; chain 3 CGGCCAUAGCCC; 2'-F C/U, chemistry not fully specified) | 3.5
R-2: short-sequence RNA nanoparticle, strands SEQ ID NO:58-60, c/u 2′F modification (chain 1 GCAGCGUUCG; chain 2 CGUUCGCCGY; chain 3 CGGCCAUAGCGC; 2'-F C/U, chemistry not fully specified) | 2.4
R-3: short-sequence RNA nanoparticle, strands SEQ ID NO:61-63, c/u 2′F modification (chain 1 CGAGCGUUGC; chain 2 GCUUCGCCGY; chain 3 CGGCCAUAGCCG; 2'-F C/U, chemistry not fully specified) | 4.8
R-4: short-sequence RNA nanoparticle, strands SEQ ID NO:64-66, c/u 2′F modification (chain 1 GGAGCGUUGG; chain 2 CCUUCGGGGY; chain 3 CCCCCAUAGCCC; 2'-F C/U, chemistry not fully specified) | 3.5
R-5: short-sequence RNA nanoparticle, strands SEQ ID NO:67-69, c/u 2′F modification (chain 1 GCAGCGUUCG; chain 2 CGUUCGGCGY; chain 3 CGCCCAUAGCGC; 2'-F C/U, chemistry not fully specified) | 12.5
R-6: short-sequence RNA nanoparticle, strands SEQ ID NO:70-72, c/u 2′F modification (chain 1 GCAGCGUUCG; chain 2 CGUUCGGCCY; chain 3 GGCCCAUAGCGC; 2'-F C/U, chemistry not fully specified) | 2.8
B7 | 11
B8 | 14
B6 | 10
